PMC10539340, “A common human MLKL polymorphism confers resistance to negative regulation by phosphorylation” (Nature Communications, 2023)
Residue numbers refer to the chain shown, from its start. Numbers in names are those of the source.

B1: Recombinant full-length human MLKL (residue 2-471), wild type (natural protein, UniProt Q8NB16 2-471, looked up)
chain: ENLKHIITLGQVIHKRCEEMKYCKKQCRRLGHRVLGLIKPLEMLQDQGKRSVPSEKLTTAMNRFKAALEEANGEIEKFSNRSNICRFLTASQDKILFKDVNRKLSDVWKELSLLLQVEQRMPVSPISQGASWAQEDQQDADEDRRAFQMLRRDNEKIEASLRRLEINMKEIKETLRQYLPPKCMQEIPQEQIKEIKKEQLSGSPWILLRENEVSTLYKGEYHRAPVAIKVFKKLQAGSIAIVRQTFNKEIKTMKKFESPNILRIFGICIDETVTPPQFSIVMEYCELGTLRELLDREKDLTLGKRMVLVLGAARGLYRLHHSEAPELHGKIRSSNFLVTQGYQVKLAGFELRKTQTSMSLGTTREKTDRVKSTAYLSPQELEDVFYQYDVKSEIYSFGIVLWEIATGDIPFQGCNSEKIRKLVAVKRQQEPLGEDCPSELREIIDECRAHDPSVRPSVDEILKKLSTFSK
notes: Bacmids were made from pFastBac Htb vectors; also called MLKL^WT; hMLKL; source: Sf21 insect cells, purified (glutathione agarose, size-exclusion chromatography)
B2: Recombinant full-length human MLKL (residue 2-471) S83D (natural protein, UniProt Q8NB16 2-471, looked up)
chain: B1 chain with S82D
notes: human MLKL, residues 2-471, with the phosphomimetic S83D; Bacmids were made from pFastBac Htb vectors; also called MLKL^S83D; source: Sf21 insect cells, purified (glutathione agarose, size-exclusion chromatography)
B3: Recombinant full-length human MLKL (residue 2-471) S83D,S132P (natural protein, UniProt Q8NB16 2-471, looked up)
chain: B1 chain with S82D, S131P
notes: human MLKL, residues 2-471, compound mutant of the phosphomimetic S83D and the polymorphism S132P; Bacmids were made from pFastBac Htb vectors; also called MLKL^(S83D, S132P); MLKL^S83D,S132P; source: Sf21 insect cells, purified (glutathione agarose, size-exclusion chromatography)
B4: Recombinant full-length human MLKL (residue 2-471) S132P (natural protein, UniProt Q8NB16 2-471, looked up)
chain: B1 chain with S131P
notes: human MLKL, residues 2-471, with the natural polymorphism p.Ser132Pro; Bacmids were made from pFastBac Htb vectors; also called MLKL^S132P; p.Ser132Pro; source: Sf21 insect cells, purified (glutathione agarose, size-exclusion chromatography)

Target: the molecule itself
Experiment: SEC; HiLoad 16/600 Superdex 200 pg column after glutathione agarose; fractions at elution volume 55-63 ml taken as tetramers and pooled

Row | Protein | stoichiometry N
1 | B1 | 4
2 | B2 | 4
3 | B3 | 4
4 | B4 | 4
